Data: publication PMC6297170

Molecular target: lysine decarboxylase CadA from Vibrio vulnificus (Vibrio vulnificus)
Test: SEC; Sephacryl S-300 HR column on FPLC, 0.5 mL/min, 50 mM MES/100 mM NaCl pH 6.5; standards IgM 970 kDa, thyroglobulin 669 kDa, ferritin 440 kDa, catalase 232 kDa, aldolase 140 kDa; self-association of the purified enzyme

lysine decarboxylase CadA from Vibrio vulnificus (from UniProt A0A3Q0L4X5 1-797) (enzyme)
stoichiometry N: 10
